The source of these data is patent US20130136736A1 (Ablynx, published 2013).

The target in this assay is T1, human von Willebrand Factor (vWF) (human, UniProt P04275 764-2813).
T1 construct: Multimeric plasma protein; The species of the vWF on the BIACORE chip and ELISA plates is not restated there; also called vWF (Red Cross); human vWF
The assay is described as follows: ELISA on coated vWF: supernatant of a 200 µg/ml nanobody solution heated for 1 h at RT to 90 °C, dilution series, OD 405 nm. A general note: In an ELISA, binding on a coated surface is turned into a signal by an enzyme label.

B1: 12A2H4 (VHH)
VHH: EVQLVESGGGLVQPGGSLRLSCAASGRTFSYNPMGWFRQAPGKGRELVAAISRTGGSTYYPDSVEGRFTISRDNAKRSVYLQMNSLRAEDTAVYYCAAAGVRAEDGRVRTLPSEYTFWGQGTQVTVSS
notes: Humanised 12A2, monovalent
As for B1, the binding result is “binds”.
